Reference: patent publication US20050255464A1, “Methods for the identification of peptidyl compounds interacting with extracellular target molecules” (priority 2001, published 2005)

Target: fusion protein encoded by plasmid pIcoFLAGXa (amino terminal FLAG epitope, Factor Xa cleavage sequence Ile-Glu-Gly-Arg-Gly, thioredoxin with the V5 epitope at the active site, GPI linkage), displayed on COS7 cells (E. coli) [thioredoxin: P0AA25]
Assay: cell-based or functional assay

Factor Xa (enzyme)
cells selected on streptavidin magnetic beads with biotin anti-FLAG antibody after incubation with Factor Xa: 0 % of cells
